Laboratory results taken from USRE46376 (Wyeth LLC, dated 2017).

Tests used:
[1] = molecular target: wild-type C. difficile toxin B (TcdB) (Clostridium difficile strain 630, UniProt P18177 2-2366); assay: binding specificity, Table 18
[2] = molecular target: Commercial, Control Toxin B wt (List Biologicals) (Clostridium difficile, UniProt P18177 2-2366); assay: dot blot, non-denaturing conditions
Commercial, Control Toxin B wt (List Biologicals), sequence (P18177 2-2366 limits assumed): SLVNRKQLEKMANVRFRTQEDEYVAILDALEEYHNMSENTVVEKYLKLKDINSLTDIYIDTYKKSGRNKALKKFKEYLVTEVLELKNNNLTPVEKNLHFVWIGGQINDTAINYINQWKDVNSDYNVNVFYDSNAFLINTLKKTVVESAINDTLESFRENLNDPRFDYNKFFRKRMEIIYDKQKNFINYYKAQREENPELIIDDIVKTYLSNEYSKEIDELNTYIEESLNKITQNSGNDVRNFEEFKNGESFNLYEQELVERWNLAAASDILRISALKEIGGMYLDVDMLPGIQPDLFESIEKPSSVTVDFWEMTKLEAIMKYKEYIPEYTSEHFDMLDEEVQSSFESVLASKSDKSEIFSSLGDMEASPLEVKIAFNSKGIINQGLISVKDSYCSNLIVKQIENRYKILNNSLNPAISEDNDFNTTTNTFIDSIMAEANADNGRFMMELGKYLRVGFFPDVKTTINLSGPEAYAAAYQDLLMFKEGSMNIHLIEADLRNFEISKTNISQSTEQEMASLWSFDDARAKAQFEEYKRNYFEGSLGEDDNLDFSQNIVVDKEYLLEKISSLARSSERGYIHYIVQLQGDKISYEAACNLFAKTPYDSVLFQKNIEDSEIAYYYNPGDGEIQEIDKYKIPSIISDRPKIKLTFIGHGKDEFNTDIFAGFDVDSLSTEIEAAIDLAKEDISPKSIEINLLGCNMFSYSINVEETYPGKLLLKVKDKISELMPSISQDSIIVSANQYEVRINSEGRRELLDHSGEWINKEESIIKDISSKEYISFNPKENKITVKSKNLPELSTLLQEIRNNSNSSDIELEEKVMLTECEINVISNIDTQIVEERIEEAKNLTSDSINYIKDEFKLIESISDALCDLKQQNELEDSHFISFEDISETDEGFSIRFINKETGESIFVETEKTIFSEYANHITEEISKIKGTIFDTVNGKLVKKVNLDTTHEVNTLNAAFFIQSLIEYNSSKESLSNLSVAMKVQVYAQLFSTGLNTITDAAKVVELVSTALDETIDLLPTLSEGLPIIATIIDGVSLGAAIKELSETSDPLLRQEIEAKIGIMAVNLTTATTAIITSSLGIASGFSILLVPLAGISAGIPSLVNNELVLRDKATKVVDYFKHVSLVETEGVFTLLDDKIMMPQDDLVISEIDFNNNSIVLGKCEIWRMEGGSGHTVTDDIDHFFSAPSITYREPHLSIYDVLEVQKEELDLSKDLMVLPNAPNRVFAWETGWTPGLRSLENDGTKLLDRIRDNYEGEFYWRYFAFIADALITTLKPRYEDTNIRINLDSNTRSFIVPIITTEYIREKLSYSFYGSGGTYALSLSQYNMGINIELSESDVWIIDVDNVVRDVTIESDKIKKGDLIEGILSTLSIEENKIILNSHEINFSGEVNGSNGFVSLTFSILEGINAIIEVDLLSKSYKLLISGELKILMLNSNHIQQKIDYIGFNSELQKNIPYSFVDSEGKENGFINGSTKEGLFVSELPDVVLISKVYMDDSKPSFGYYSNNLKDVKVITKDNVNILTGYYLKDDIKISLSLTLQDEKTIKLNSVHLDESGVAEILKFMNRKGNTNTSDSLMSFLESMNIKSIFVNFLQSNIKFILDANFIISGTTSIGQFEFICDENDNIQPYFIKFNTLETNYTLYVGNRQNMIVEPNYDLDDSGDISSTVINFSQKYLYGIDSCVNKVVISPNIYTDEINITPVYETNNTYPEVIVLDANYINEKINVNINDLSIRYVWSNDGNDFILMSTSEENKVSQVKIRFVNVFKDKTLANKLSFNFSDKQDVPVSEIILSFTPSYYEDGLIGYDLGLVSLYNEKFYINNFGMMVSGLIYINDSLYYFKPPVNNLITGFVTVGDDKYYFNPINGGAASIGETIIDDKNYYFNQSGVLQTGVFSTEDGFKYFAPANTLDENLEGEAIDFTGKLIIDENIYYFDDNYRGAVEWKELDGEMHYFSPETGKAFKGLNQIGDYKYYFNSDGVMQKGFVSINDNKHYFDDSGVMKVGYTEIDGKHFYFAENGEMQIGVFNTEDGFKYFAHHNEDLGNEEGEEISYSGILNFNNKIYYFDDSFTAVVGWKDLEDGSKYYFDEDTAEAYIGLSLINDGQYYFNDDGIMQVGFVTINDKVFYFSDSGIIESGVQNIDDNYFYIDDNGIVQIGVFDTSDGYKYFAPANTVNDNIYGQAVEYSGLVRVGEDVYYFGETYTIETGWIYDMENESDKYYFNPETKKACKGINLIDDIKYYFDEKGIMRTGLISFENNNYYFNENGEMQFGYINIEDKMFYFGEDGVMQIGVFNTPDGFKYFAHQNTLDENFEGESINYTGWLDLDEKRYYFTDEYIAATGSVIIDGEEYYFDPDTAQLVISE

wild-type C. difficile toxin B (TcdB), sequence (P18177 2-2366 limits assumed): as above

Binder	binding result [1]	binding result [2]
B9-30 mAb (antibody, V domains shown) VH: QVQLQQPGAEVVKPGAPVKLSCKASGYPFTNYWMNWVKQRPGRGLEWIGRIDPSNSEIYYNQKFKDKATLTVDKSSSTAYIQLSSLTSEDSAVYYCASGHYGSIFAYWGQGTTLTVSS VL: VQITQSPSYLAASPGETITINCRASKSISKYLAWYQEKPGKTNKLLIYSGSTLQSGIPSRFSGSRSGTDFTLIISSLEPEDSAMYYCQQHNEYPLTFGAGTKLELKR	binds	
B9-30 mAb (C. difficile TcdB neutralizing antibody) (antibody, V domains shown) VH: QVQLQQPGAEVVKPGAPVKLSCKASGYPFTNYWMNWVKQRPGRGLEWIGRIDPSNSEIYYNQKFKDKATLTVDKSSSTAYIQLSSLTSEDSAVYYCASGHYGSIFAYWGQGTTLTVSS VL: VQITQSPSYLAASPGETITINCRASKSISKYLAWYQEKPGKTNKLLIYSGSTLQSGIPSRFSGSRSGTDFTLIISSLEPEDSAMYYCQQHNEYPLTFGAGTKLELKR		binds
